Where a chain is given by its changes, count along the chain named.
Legend:
GFP-BPC6 [1] = target: T1, GFP-BPC6 (Arabidopsis thaliana, UniProt Q8L999 1-342); test: qDPI-ELISA; similar to the other 2x GAGA probes; DPI-ELISA/qDPI-ELISA: 3 ug total E. coli protein extract and 2 pmol biotinylated dsDNA per well in buffered solution; salt, pH and temperature not stated (cited protocols); details: protein: recombinant; tags: GFP fusion; label: biotin on sense strand
T1 sequence: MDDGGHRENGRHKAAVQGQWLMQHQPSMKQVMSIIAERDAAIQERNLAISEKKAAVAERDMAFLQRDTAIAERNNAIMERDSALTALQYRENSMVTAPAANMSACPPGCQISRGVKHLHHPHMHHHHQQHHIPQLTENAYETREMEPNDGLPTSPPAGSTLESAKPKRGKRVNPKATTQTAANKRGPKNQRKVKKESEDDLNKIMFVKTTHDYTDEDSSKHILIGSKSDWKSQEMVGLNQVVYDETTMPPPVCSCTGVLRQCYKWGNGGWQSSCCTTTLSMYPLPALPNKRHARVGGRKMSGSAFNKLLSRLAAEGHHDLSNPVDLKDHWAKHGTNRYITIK

GFP-BPC6 [2] = target: T1, GFP-BPC6; test: qDPI-ELISA; 2.5-times lower than BKn3; DPI-ELISA/qDPI-ELISA: 3 ug total E. coli protein extract and 2 pmol biotinylated dsDNA per well in buffered solution; salt, pH and temperature not stated (cited protocols); details: protein: recombinant; tags: GFP fusion; label: biotin on sense strand
BPC1 [3] = target: T2, BPC1 (Arabidopsis thaliana, UniProt Q9SKD0 1-283); test: DPI-ELISA; comparable to K4; DPI-ELISA/qDPI-ELISA: 3 ug total E. coli protein extract and 2 pmol biotinylated dsDNA per well in buffered solution; salt, pH and temperature not stated (cited protocols); details: protein: recombinant; tags: N-terminal 6xHis (pET32b-GW); label: biotin on sense strand
T2 sequence: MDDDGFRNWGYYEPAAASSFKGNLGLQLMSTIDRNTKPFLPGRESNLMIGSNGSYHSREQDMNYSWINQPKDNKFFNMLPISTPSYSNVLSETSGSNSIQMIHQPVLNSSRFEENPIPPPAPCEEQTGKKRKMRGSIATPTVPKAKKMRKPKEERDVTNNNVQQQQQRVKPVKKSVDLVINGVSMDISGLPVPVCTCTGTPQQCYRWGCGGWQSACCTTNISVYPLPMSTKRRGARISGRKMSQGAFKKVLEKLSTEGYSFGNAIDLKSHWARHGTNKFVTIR

GFP-BPC6 [4] = target: T1, GFP-BPC6; test: qDPI-ELISA; negative binding probe, used as background; DPI-ELISA/qDPI-ELISA: 3 ug total E. coli protein extract and 2 pmol biotinylated dsDNA per well in buffered solution; salt, pH and temperature not stated (cited protocols); details: protein: recombinant; tags: GFP fusion; label: biotin on sense strand
BPC1-WARH = target: T3, BPC1-WARH (Arabidopsis thaliana, UniProt Q9SKD0 1-270); test: DPI-ELISA; DPI-ELISA/qDPI-ELISA: 3 ug total E. coli protein extract and 2 pmol biotinylated dsDNA per well in buffered solution; salt, pH and temperature not stated (cited protocols); details: protein: recombinant; tags: N-terminal 6xHis (pET32b-GW); label: 5' or 3' biotin not specified, sense strand biotin
T3 sequence: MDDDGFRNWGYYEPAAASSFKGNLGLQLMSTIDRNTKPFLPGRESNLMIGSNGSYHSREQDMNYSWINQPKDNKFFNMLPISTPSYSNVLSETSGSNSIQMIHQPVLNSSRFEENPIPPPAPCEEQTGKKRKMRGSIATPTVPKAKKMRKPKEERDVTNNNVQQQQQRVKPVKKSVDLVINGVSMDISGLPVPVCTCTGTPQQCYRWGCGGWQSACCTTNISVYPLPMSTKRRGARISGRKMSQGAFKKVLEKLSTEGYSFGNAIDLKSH

BPC1-TIR = target: T4, BPC1-TIR (Arabidopsis thaliana, UniProt Q9SKD0 1-280); test: DPI-ELISA; about 30% less than wild type; DPI-ELISA/qDPI-ELISA: 3 ug total E. coli protein extract and 2 pmol biotinylated dsDNA per well in buffered solution; salt, pH and temperature not stated (cited protocols); details: protein: recombinant; tags: N-terminal 6xHis (pET32b-GW); label: 5' or 3' biotin not specified, sense strand biotin
T4 sequence: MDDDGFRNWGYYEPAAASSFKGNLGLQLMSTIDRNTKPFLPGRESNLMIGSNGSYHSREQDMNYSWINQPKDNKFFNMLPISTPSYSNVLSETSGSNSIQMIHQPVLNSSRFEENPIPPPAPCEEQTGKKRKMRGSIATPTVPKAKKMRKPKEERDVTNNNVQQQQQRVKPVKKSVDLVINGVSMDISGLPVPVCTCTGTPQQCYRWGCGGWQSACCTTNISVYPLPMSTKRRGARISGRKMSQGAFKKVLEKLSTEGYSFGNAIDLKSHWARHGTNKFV

GFP-BPC6 [5] = target: T1, GFP-BPC6; test: qDPI-ELISA; DPI-ELISA/qDPI-ELISA: 3 ug total E. coli protein extract and 2 pmol biotinylated dsDNA per well in buffered solution; salt, pH and temperature not stated (cited protocols); details: protein: recombinant; tags: GFP fusion; label: biotin on sense strand
BPC1 [6] = target: T2, BPC1; test: DPI-ELISA; DPI-ELISA/qDPI-ELISA: 3 ug total E. coli protein extract and 2 pmol biotinylated dsDNA per well in buffered solution; salt, pH and temperature not stated (cited protocols); details: protein: recombinant; tags: N-terminal 6xHis (pET32b-GW); label: biotin on sense strand

B1: K12 (dsDNA)
DNA 1: AATTGGAAATATGGAGAGAGAAAACAAATC
DNA 2: GATTTGTTTTCTCTCTCCATATTTCCAATT
binding result (GFP-BPC6 [1]): binds

B2: KNAT1/BP (dsDNA)
DNA 1: ATGAGGGCAAAGAGAGATGAGAGAAAATTTATACGTAC
DNA 2: GTACGTATAAATTTTCTCTCATCTCTCTTTGCCCTCAT
binding result (GFP-BPC6 [2]): binds
binding result (BPC1 [3]): binds

B3: Kneg (dsDNA)
DNA 1: TAATGCAGCAAGTAAGACTACGACTGTTTC
DNA 2: GAAACAGTCGTAGTCTTACTTGCTGCATTA
binding result (GFP-BPC6 [4]): no binding

B4: K4mut7mut5 (dsDNA)
DNA 1: TAAAGGAGCAAGTAAGAGAACGAGAGTTTC
DNA 2: GAAACTCTCGTTCTCTTACTTGCTCCTTTA
binding result (GFP-BPC6 [1]): binds

B5: GAGA2 (dsDNA)
DNA 1: GGAGCAAGTAAGAGATGAAACGAGAGTTTC
DNA 2: GAAACTCTCGTTTCATCTCTTACTTGCTCC
binding result (GFP-BPC6 [1]): binds

B6: K4 (dsDNA)
DNA 1: B4 DNA 1 with C9A, T13A, C21A
DNA 2: B4 DNA 2 with G10T, A18T, G22T
binding result (BPC1-WARH): no binding
binding signal (BPC1-TIR): ~70 % of wild-type BPC1 signal

B7: BKn3 (dsDNA)
DNA 1: CCGCCATTAATTCATGAGAGAGAGAGAGAGACCAGAGATAA
DNA 2: TTATCTCTGGTCTCTCTCTCTCTCTCATGAATTAATGGCGG
binding signal (GFP-BPC6 [5]): ~2.5 fold of KNAT1/BP fluorescence
binding signal (BPC1 [6]): ~2 fold of K4 signal

Source: publication PMC6477699, “Phylogenetic Analyses and GAGA-Motif Binding Studies of BBR/BPC Proteins Lend to Clues in GAGA-Motif Recognition and a Regulatory Role in Brassinosteroid Signaling”
